The text below walks through data of patent publication US20210292396A1.

Test [1] deals with HIV Env of the 106-virus cross-clade panel (Table 5). The test is described as follows: cell-based or functional assay.
The target in test [2] is HIV Env of the 113-member cross-clade virus panel (Table 6). The test is described as follows: cell-based or functional assay.

B1: ePGT121.15.H1.L1 (antibody, V domains shown)
VH: QMQLQESGPGLVKPGETLSLTCSVSGASISSSYWSWLRETPGKGLEWIGYTHHSGDTNYAPSLKSRVHLGLHPSKNQVSLSLTSVTAADTAVYYCARTLHGRRIYGVVAFNEWFTYFYWEVWGNGTQVTVSS
VL: SDISVAPGETVRISCGGESIGSRAVQWYQHRAGQAPKLIIYNNQDRPPGIPERFSGSPDIDFGTTATLTITNVEAGDEATYYCHIWDSRRPTNWVFGGGTTLTVL
With B1, in test [1], the % Breadth was 75%; the Median IC50 was 1 ng/mL; the breadth of neutralization at an IC80 of 0.01 microg/ml was 50%; the median IC80, 106-virus panel worked out at 9.3 ng/mL. Besides, the neutralization breadth (IC80), 106-virus panel in test [1] was 69%. In test [2], the Breadth was 76% and the GeoMean turned out to be 0.0061.

B2: ePGT121.15.H6.L1 (antibody, V domains shown)
VH: QMQLQESGPGLVKPGETLSLTCSVSGASISSSYWSWLRETPGKGLEWIGYTHHSGDTNYAPSLKSRVHLGLHPSKNQVSLSLTSVTAADTAVYYCARTLHGRRIYGVVAFNEFFTYFYWEVWGKGTQVTVSS
VL: SDISVAPGETVRISCGGESIGSRAVQWYQHRAGQAPKLIIYNNQDRPPGIPERFSGSPDIDFGTTATLTITNVEAGDEATYYCHIWDSRRPTNWVFGGGTTLTVL
B2: in test [2], the Breadth was 77% and the GeoMean amounted to 0.0048.
